Reference: PMC8558838 (The Journal of Experimental Medicine, 2021)

B1: full-length mouse LIGHT, on cells (mLIGHT-IRES-EGFP) [mouse] / full-length WT mouse HVEM-mCherry, on cells [mouse] (parent complex)
chain 1: MESVVQPSVFVVDGQTDIPFRRLEQNHRRRRCGTVQVSLALVLLLGAGLATQGWFLLRLHQRLGDIVAHLPDGGKGSWEKLIQDQRSHQANPAAHLTGANASLIGIGGPLLWETRLGLAFLRGLTYHDGALVTMEPGYYYVYSKVQLSGVGCPQGLANGLPITHGLYKRTSRYPKELELLVSRRSPCGRANSSRVWWDSSFLGGVVHLEAGEEVVVRVPGNRLVRPRDGTRSYFGAFMV
chain 2: QPSCRQEEFLVGDECCPMCNPGYHVKQVCSEHTGTVCAPCPPQTYTAHANGLSKCLPCGVCDPDMGLLTWQECSSWKDTVCRCIPGYFCENQDGSHCSTCLQHTTCPPGQRVEKRGTHDQDTVCADCLTGTFSLGGTQEECLPWTNCSAFQQEVRRGTNSTDTTCSSQVVYYVVSILLPLVIVGAGIAGFLICTRRHLHTSSVAKELEPFQEQQENTIRFPVTEVGFAETEEETASN
B2: full-length mouse BTLA-EGFP, on cells [mouse] / full-length WT mouse HVEM-mCherry, on cells [mouse] (parent complex)
chain 1: EKATKRNDEECPVQLTITRNSKQSARTGELFKIQCPVKYCVHRPNVTWCKHNGTICVPLEVSPQLYTSWEENQSVPVFVLHFKPIHLSDNGSYSCSTNFNSQVINSHSVTIHVRERTQNSSEHPLITVSDIPDATNASGPSTMEERPGRTWLLYTLLPLGALLLLLACVCLLCFLKRIQGKEKKPSDLAGRDTNLVDIPASSRTNHQALPSGTGIYDNDPWSSMQDESELTISLQSERNNQGIVYASLNHCVIGRNPRQENNMQEAPTEYASICVRS
chain 2: B1 chain 2
B3: mouse CD160 (30I-154H) with C-terminal …, biotinylated [modified: biotin; biotin] [mouse] / full-length WT mouse HVEM-mCherry, on cells [mouse] (parent complex)
chain 1: IHVTSSASQKGGRLDLTCTLWHKKDEAEGLILFWCKDNPWNCSPETNLEQLRVKRDPETDGITEKSSQLVFTIEQATPSDSGTYQCCARSQKPEIYIHGHFLSVLVTGNHTEIRQRQRSHPDFSH
chain 2: B1 chain 2
B4: hCD160-6×His tag protein [human] / WT hHVEM (L39-V202) fused with a PD-L1 transmembrane domain and EGFP, on cells [human] (parent complex)
chain 1: GCINITSSASQEGTRLNLICTVWHKKEEAEGFVVFLCKDRSGDCSPETSLKQLRLKRDPGIDGVGEISSQLMFTISQVTPLHSGTYQCCARSQKSGIRLQGHFFSILFTETGNYTVTGLKQRQHLEFSHNEGTLS
chain 2: LPSCKEDEYPVGSECCPKCSPGYRVKEACGELTGTVCEPCPPGTYIAHLNGLSKCLQCQMCDPAMGLRASRNCSRTENAVCGCSPGHFCIVQDGDHCAACRAYATSSPGQRVQKGGTESQDTLCQNCPPGTFSPNGTLEECQHQTKCSWLVTKAGAGTSSSHWV

Variants of: B1
Experiment: flow cytometry, cell–cell method

First: chain 2 M18A
Second: chain 2 K77D
The ratio to parent of the first is lower: 1.2 for the first, 1.4 for the second.

First: chain 2 G34A
Second: chain 2 K77A
The ratio to parent of the first is lower: 1.2 for the first, 1.8 for the second.

chain 2 R5D and chain 2 K26D are the same in ratio to parent: 1.1 for the first, 1.1 for the second.

Going from chain 2 N50A to chain 2 T35D, the ratio to parent falls from 0.5 to 0.3.

Compared with chain 2 E8R, chain 2 L56A is lower in ratio to parent: 1 for the first, 0.8 for the second.

Compared with chain 2 S98D, chain 2 A38W is higher in ratio to parent: 0.8 for the first, 0.9 for the second.

chain 2 E8A and chain 2 V36D are the same in ratio to parent: 0.9 for the first, 0.9 for the second.

First: chain 2 G34D
Second: chain 2 V36A
The ratio to parent of the first is lower: 0.9 for the first, 1 for the second.

chain 2 L52A and chain 2 T99D are the same in ratio to parent: 0.7 for the first, 0.7 for the second.

Compared with chain 2 S30A, chain 2 T99A is lower in ratio to parent: 1 for the first, 0.8 for the second.

Compared with chain 2 M18D, chain 2 A38D is higher in ratio to parent: 0.9 for the first, 1.1 for the second.

Going from chain 2 N50D to chain 2 K26A, the ratio to parent rises from 0.5 to 1.

Compared with chain 2 P17A, chain 2 L52D is lower in ratio to parent: 0.8 for the first, 0.4 for the second.

Going from chain 2 R5A to chain 2 S30H, the ratio to parent rises from 0.5 to 1.1.

chain 2 H48D and chain 2 S30D are the same in ratio to parent: 0.8 for the first, 0.8 for the second.

First: chain 2 A49D
Second: chain 2 H96D
The ratio to parent of the first is higher: 1.2 for the first, 0.7 for the second.

First: chain 2 H48R
Second: chain 2 L52R
The ratio to parent of the first is higher: 1 for the first, 0.4 for the second.

Compared with chain 2 G51D, chain 2 S98A is higher in ratio to parent: 0.4 for the first, 0.9 for the second.

Going from chain 2 G34R to chain 2 T35A, the ratio to parent rises from 0.6 to 0.7.

In the case of chain 2 L56D, the ratio to parent is reported as 0.6.

Variants of: B1
Experiment: flow cytometry, cell–cell method; read off a plot

First: chain 2 G34D, chain 2 V36R
Second: chain 2 G34A, chain 2 V36D
The ratio to parent of the first is higher: about 1.3 for the first, about 1.1 for the second.

Compared with chain 2 H48D, chain 2 L52A, chain 2 H48R, chain 2 L52A is higher in ratio to parent: about 0.24 for the first, about 0.3 for the second.

Compared with chain 2 H48D, chain 2 L52D, chain 2 G34D, chain 2 V36A is higher in ratio to parent: about 0.25 for the first, about 1.1 for the second.

Going from chain 2 G34R, chain 2 V36A to chain 2 H48A, chain 2 L52A, the ratio to parent falls from about 1.2 to about 0.28.

Compared with chain 2 H48D, chain 2 L52R, chain 2 G34D, chain 2 V36D is higher in ratio to parent: about 0.37 for the first, about 0.87 for the second.

Variants of: B2
Experiment: flow cytometry, cell–cell method

chain 2 S98A and chain 2 V36A are the same in ratio to parent: 1 for the first, 1 for the second.

chain 2 S30D and chain 2 L52D are the same in ratio to parent: 0.8 for the first, 0.8 for the second.

Compared with chain 2 L56D, chain 2 K26A is lower in ratio to parent: 1.1 for the first, 0.9 for the second.

chain 2 S98D and chain 2 G34A are the same in ratio to parent: 1 for the first, 1 for the second.

Compared with chain 2 M18A, chain 2 P17A is lower in ratio to parent: 1.2 for the first, 0.4 for the second.

Going from chain 2 E8A to chain 2 K77D, the ratio to parent rises from 1 to 1.2.

First: chain 2 K26D
Second: chain 2 T35D
The ratio to parent of the first is higher: 1 for the first, 0.1 for the second.

Compared with chain 2 T99D, chain 2 T99A is higher in ratio to parent: 0.9 for the first, 1 for the second.

Going from chain 2 S30A to chain 2 N50D, the ratio to parent falls from 1 to 0.9.

Going from chain 2 R5A to chain 2 T35A, the ratio to parent falls from 0.7 to 0.5.

Compared with chain 2 R5D, chain 2 G34R is lower in ratio to parent: 1.2 for the first, 0.1 for the second.

Compared with chain 2 S30H, chain 2 V36D is lower in ratio to parent: 0.9 for the first, 0.8 for the second.

Compared with chain 2 G51D, chain 2 E8R is lower in ratio to parent: 1 for the first, 0.7 for the second.

Compared with chain 2 M18D, chain 2 H48D is higher in ratio to parent: 1 for the first, 1.1 for the second.

First: chain 2 L56A
Second: chain 2 A49D
The ratio to parent of the first is lower: 1 for the first, 1.3 for the second.

First: chain 2 A38D
Second: chain 2 G34D
The ratio to parent of the first is higher: 1.2 for the first, 0.3 for the second.

First: chain 2 N50A
Second: chain 2 L52A
The ratio to parent of the first is higher: 1.1 for the first, 1 for the second.

Compared with chain 2 A38W, chain 2 L52R is lower in ratio to parent: 1.2 for the first, 0.9 for the second.

First: chain 2 H48R
Second: chain 2 H96D
The ratio to parent of the first is higher: 1.1 for the first, 0.9 for the second.

With chain 2 K77A the ratio to parent was 1.3.

Variants of: B2
Experiment: flow cytometry, cell–cell method; read off a plot

Going from chain 2 G34A, chain 2 V36D to chain 2 H48D, chain 2 L52D, the ratio to parent rises from about 0.06 to about 1.1.

Going from chain 2 G34D, chain 2 V36D to chain 2 H48D, chain 2 L52A, the ratio to parent rises from about 0.06 to about 1.

Going from chain 2 G34D, chain 2 V36R to chain 2 H48R, chain 2 L52A, the ratio to parent rises from about 0.05 to about 1.2.

Going from chain 2 H48A, chain 2 L52A to chain 2 G34D, chain 2 V36A, the ratio to parent falls from about 0.88 to about 0.07.

First: chain 2 G34R, chain 2 V36A
Second: chain 2 H48D, chain 2 L52R
The ratio to parent of the first is lower: about 0.06 for the first, about 1.4 for the second.

Variants of: B3
Experiment: flow cytometry, cell–protein method

Going from chain 2 N50D to chain 2 L52D, the ratio to parent rises from 0.1 to 0.9.

First: chain 2 T99A
Second: chain 2 H96D
The ratio to parent of the first is higher: 1.1 for the first, 1 for the second.

Going from chain 2 H48D to chain 2 T35D, the ratio to parent falls from 1.1 to 0.1.

Going from chain 2 S98D to chain 2 G51D, the ratio to parent falls from 1.1 to 0.3.

Going from chain 2 L56D to chain 2 S30H, the ratio to parent falls from 0.9 to 0.6.

Compared with chain 2 V36D, chain 2 L52A is higher in ratio to parent: 0.1 for the first, 0.9 for the second.

Going from chain 2 A38W to chain 2 A49D, the ratio to parent falls from 1.1 to 0.7.

chain 2 H48R and chain 2 L56A are the same in ratio to parent: 1 for the first, 1 for the second.

First: chain 2 T99D
Second: chain 2 S98A
The ratio to parent of the first is higher: 1.3 for the first, 1.1 for the second.

Going from chain 2 M18A to chain 2 G34R, the ratio to parent falls from 0.6 to 0.1.

chain 2 K77D and chain 2 K26D are the same in ratio to parent: 0.6 for the first, 0.6 for the second.

Going from chain 2 V36A to chain 2 M18D, the ratio to parent falls from 1 to 0.1.

Compared with chain 2 P17A, chain 2 L52R is higher in ratio to parent: 0.1 for the first, 0.8 for the second.

Going from chain 2 K77A to chain 2 R5D, the ratio to parent falls from 1.1 to 0.1.

Compared with chain 2 E8A, chain 2 R5A is higher in ratio to parent: 0.1 for the first, 0.2 for the second.

Going from chain 2 A38D to chain 2 S30D, the ratio to parent rises from 0.1 to 0.8.

chain 2 E8R and chain 2 G34A are the same in ratio to parent: 0.1 for the first, 0.1 for the second.

Going from chain 2 S30A to chain 2 G34D, the ratio to parent falls from 0.9 to 0.1.

Compared with chain 2 K26A, chain 2 T35A is lower in ratio to parent: 0.7 for the first, 0.1 for the second.

In the case of chain 2 N50A, the ratio to parent is reported as 0.1.

Variants of: B3
Experiment: flow cytometry, cell–protein method; read off a plot

chain 2 G34D, chain 2 V36D and chain 2 G34A, chain 2 V36D are the same in ratio to parent: about 0.01 for the first, about 0.01 for the second.

Compared with chain 2 G34D, chain 2 V36R, chain 2 H48D, chain 2 L52D is higher in ratio to parent: about 0.01 for the first, about 0.76 for the second.

First: chain 2 H48D, chain 2 L52R
Second: chain 2 G34D, chain 2 V36A
The ratio to parent of the first is higher: about 0.66 for the first, about 0.01 for the second.

Going from chain 2 H48A, chain 2 L52A to chain 2 G34R, chain 2 V36A, the ratio to parent falls from about 1.4 to about 0.01.

In the case of chain 2 H48R, chain 2 L52A, the ratio to parent is reported as about 1.

Variants of: B4
Experiment: flow cytometry on cells stained with soluble protein

Compared with chain 2 N50A, chain 2 L49A is higher in ratio to parent: 0.8 for the first, 1.3 for the second.

Compared with chain 2 E77A, chain 2 G51A is lower in ratio to parent: 1.1 for the first, 0.9 for the second.
